In PMC6319338, “Insight into the PTEN – p85α interaction and lipid binding properties of the p85α BH domain” (Oncotarget, 2018):

Target: T1, purified p85α wild type (cleaved from GST) (bovine, UniProt P23727 1-724)
T1 construct: p85α (PI3K regulatory subunit alpha), bovine, residues 1-724; also called wild type p85α; source: E. coli, expressed as GST fusion, cleaved from GST, purified; not shown: GST, N-terminal, cleaved
Experiment: pull-down; GST-PTEN (wild type or mutant; 5 μg) immobilized on glutathione Sepharose beads; precleared purified p85α cleaved from GST (5 μg in 1% milk, 500 μl PBS pH 7.3); 30 minutes at room temperature; 5 washes; anti-p85α immunoblot, quantified with Odyssey software
Details: both partners purified

B1: GST-PTEN wild type (1–403) (natural protein)
chain: not shown
notes: PTEN, human, residues 1-403 (74 kDa as GST fusion); vector pGEX6P1; The activity assay used His6-PTEN instead; also called wild type PTEN; source: E. coli, GST fusion immobilized on glutathione Sepharose beads
B1: binds.
